Measurements as given in patent publication US20060002935A1.

Tests used:
[1] = target: human TNFR1 on HeLa cells (human) (UniProt P19438); experiment: cell-based or functional assay
[2] = target: hen egg lysozyme (hen) (UniProt P00698); experiment: ELISA on HEL-coated plate, detection via myc tag (9e10) and anti mouse IgG-HRP
Chain of hen egg lysozyme (hen) (P00698 19-147): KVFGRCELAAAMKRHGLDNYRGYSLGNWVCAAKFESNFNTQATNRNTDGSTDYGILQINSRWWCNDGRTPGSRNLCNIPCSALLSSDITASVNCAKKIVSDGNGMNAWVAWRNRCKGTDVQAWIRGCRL

Chain of human TNFR1 on HeLa cells (human) (P19438 30-455): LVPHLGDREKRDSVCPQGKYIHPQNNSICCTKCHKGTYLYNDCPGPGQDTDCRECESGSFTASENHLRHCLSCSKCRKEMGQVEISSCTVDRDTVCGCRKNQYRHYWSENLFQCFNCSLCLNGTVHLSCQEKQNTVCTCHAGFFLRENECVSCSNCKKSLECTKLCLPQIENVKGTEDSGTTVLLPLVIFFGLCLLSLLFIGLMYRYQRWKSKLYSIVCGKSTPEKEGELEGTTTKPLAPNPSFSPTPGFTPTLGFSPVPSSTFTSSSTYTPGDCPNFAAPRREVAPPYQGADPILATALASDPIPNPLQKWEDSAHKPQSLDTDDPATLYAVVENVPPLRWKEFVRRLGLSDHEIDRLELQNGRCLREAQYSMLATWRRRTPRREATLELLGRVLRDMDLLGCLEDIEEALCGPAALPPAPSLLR

| Binder | HeLa IL-8 Cell Assay, Activity (IC50) [1] | ELISA signal [2] |
| --- | --- | --- |
| TAR2h-10-55 (protein) EVQLLESGGGLVQPGGSLRLSCAASGFPFEWYWMGWVRQAPGKGLEWVSAISGSGDSTYYADSVKGRFTISRDNSKNTLYQQMNSLRAEDAAVYYCAKVKLGGGPNFGYRGQGTLVTVSS | 20 nM |  |
| VH CH/VH CK dual specific Fab like fragment (HEL4 CH / TAR2-5 CK) (bispecific antibody, from a related filing, V domains shown, left off: a dimerising Fc or GST; small tags and cut ends) V domain 1: EVQLLESGGGLVQPGGSLRLSCAASGFRISDEDMGWVRQAPGKGLEWVSSIYGPSGSTYYADSVKGRFTISRDNSKNTLYLQMNSLRAEDTAVYYCASALEPLSEPLGFWGQGTLVTVSS V domain 2: EVQLLESGGGLVQPGGSLRLSCAASGFTFDLYNMFWVRQAPGKGLEWVSFISQTGRLTWYADSVKGRFTISRDNSKNTLYLQMNSLRAEDTAVYYCAKTLEDFDYWGQGTLVTVSS |  | 0.154 |
